Paper PMC4339880, “Enzymatic properties and subtle differences in the substrate specificity of phylogenetically distinct invertebrate N-glycan processing hexosaminidases” (Glycobiology, 2014)
Where a chain is given by its changes, count along the chain named.

T1: CeHEX-4 (Caenorhabditis HEX-4) (Caenorhabditis elegans, UniProt Q8WTK2)
T1 sequence (Q8WTK2 25-491): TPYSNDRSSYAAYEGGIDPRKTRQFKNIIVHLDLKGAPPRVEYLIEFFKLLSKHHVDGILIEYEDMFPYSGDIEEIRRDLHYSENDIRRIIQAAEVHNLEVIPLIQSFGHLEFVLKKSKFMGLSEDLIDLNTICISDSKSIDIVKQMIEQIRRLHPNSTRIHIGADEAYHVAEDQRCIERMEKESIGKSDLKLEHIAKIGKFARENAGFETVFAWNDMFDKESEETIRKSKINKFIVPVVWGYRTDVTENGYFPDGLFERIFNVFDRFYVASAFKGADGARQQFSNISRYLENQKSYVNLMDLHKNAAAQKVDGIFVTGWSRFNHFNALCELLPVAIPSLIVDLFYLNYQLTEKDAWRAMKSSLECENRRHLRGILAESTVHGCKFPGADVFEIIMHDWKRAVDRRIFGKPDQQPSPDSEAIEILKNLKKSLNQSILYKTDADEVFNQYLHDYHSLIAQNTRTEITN

T2: DmFDL (Drosophila melanogaster FDL) (Drosophila melanogaster, UniProt Q8WSF3, W506A)
T2 construct: soluble form without transmembrane domain, alpha-factor secretion signal, N-terminal His-tag, P. pastoris X-33 (codon-optimized; also made in Hi5 insect cells), Ni-NTA purified
T2 sequence (Q8WSF3 37-660 W506A limits assumed): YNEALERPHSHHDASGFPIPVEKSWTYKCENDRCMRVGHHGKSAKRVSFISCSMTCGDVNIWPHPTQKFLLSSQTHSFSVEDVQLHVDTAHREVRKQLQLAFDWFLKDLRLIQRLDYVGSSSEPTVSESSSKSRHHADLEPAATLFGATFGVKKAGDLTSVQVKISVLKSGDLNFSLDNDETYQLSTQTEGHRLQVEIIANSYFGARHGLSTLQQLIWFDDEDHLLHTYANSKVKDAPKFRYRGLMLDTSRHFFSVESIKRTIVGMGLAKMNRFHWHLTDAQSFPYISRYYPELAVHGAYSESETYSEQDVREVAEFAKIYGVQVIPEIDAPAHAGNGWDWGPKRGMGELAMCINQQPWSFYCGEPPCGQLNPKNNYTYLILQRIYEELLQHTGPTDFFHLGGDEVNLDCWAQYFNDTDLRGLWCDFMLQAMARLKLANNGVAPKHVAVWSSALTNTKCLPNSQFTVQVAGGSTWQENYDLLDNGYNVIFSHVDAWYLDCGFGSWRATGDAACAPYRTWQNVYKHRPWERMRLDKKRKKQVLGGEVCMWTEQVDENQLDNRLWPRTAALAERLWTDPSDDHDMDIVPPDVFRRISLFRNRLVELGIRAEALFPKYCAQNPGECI

T3: DmFDL (Drosophila melanogaster FDL) (Drosophila melanogaster, UniProt Q8WSF3, G400V)
T3 construct: soluble form without transmembrane domain, alpha-factor secretion signal, N-terminal His-tag, P. pastoris X-33 (codon-optimized; also made in Hi5 insect cells), Ni-NTA purified
T3 sequence (Q8WSF3 37-660 G400V limits assumed): T2 sequence (Q8WSF3 37-660 W506A limits assumed) with G364V, A470W

B1: CeHEX-3 (C. elegans HEX-3) (Caenorhabditis elegans) (protein)
chain: TSQFKSTTTHARFVPEPSDPRLHPNSPLQAPKAQEPAAAETTKKPSRQPHHTTAKPRTENVEINGEKYPKLSPDGNLIPQRRIVHLDLKGAPYKPEFFTELFAFFNRIQATGILLEWEDMFPFKGRLRGAINKNAYSMETVEHILQEAQKHHLQIIPLVQTMGHLEWILKLEEFAHLREDTRFPQVICFSDENAWELIKEMIEEVANVHKKYGMSYFHIGADEAFQIGICNASITQIKKEFTRERLMLWHIARTARFVKEKYPETQVLAWHDMLASAMESDIEDYKLTELLQPVLWNYAEDLDIYLPRSTWMIVRNFRNVWGSSAWKGADGPARYSTNANHYLKNHESWIKQFTMVYKDFEVVEGLIMAGWSRYDHFAVLAETIPVALPTLAMSMETMIEGRPLAGNYPVTSELLQCTPPLDLGFTATGCKFPGNRIYELINEMYQKQMQLRTYRLDDYELNGWLSRVADDYSVSSHWYIDKIENMIEMHATPLEQLADDLRFEMERIFFKDTVDEFIFTYLGEDLEWFNRKRETIRKVSTSQTFPKRPFIESAKSEKTCT
B2: CeHEX-4 (Caenorhabditis HEX-4) (Caenorhabditis elegans) (protein)
chain: T1 sequence (Q8WTK2 25-491)
B3: DmFDL (Drosophila melanogaster FDL) (Drosophila melanogaster) (protein)
chain: T2 sequence (Q8WSF3 37-660 W506A limits assumed) with A470W
notes: soluble form without transmembrane domain, alpha-factor secretion signal, N-terminal His-tag, P. pastoris X-33 (codon-optimized; also made in Hi5 insect cells), Ni-NTA purified
B4: CeHEX-2 (C. elegans HEX-2) (Caenorhabditis elegans) (protein)
chain: SYPKGGISQRALDSMQKEPQTPVLVQKRENFEESIDVAVEQESKKENPFVNQQASTENAKPITQEVKIERPSRDNEFYKNVVIHFDLKGAPPKVDYFLDLLRLIAKGGATGILLEWEDMFPWTGKLEQFKNTDAYSESDVDMILSEATKLKLDVIPLVQTFGHLEWILKYEEMRKYRENDAYPQVLCLGNEEGVEFVREMIRQVAKKHAKYGIPFFHIGADEAFEFGVCQESLDWIKKNGKNGRKQLLALAHLKAIAEFAKQQTGDSTQILAWHDMLKDFDSRLIKNLELGQIIQPVVWDYSENIITLNDYIFSALAENFPTMWASSAYKGANYPSASTSEVRHYETNNRNWIRTKQNQERKFKNGFQGIIVTGWQRYDHLAGLCETLPIGTASMMLQMQIALNAPALDLEGTRQKAATLLECQGFNVDGVKVVSNQCKYRGFQTYLIYQSEVPNLFARIDSELSKNHHLMGWANRYNRKYNISQNWYHREMLPFVQQLVGQYDRVESDLRASMKDLYFENTIDEFIYENLGEMSEKLHGYLEEIQRLDKLRAWPKRHFPIKK
notes: soluble form without transmembrane domain, alpha-factor secretion signal, C-terminal His-tag, P. pastoris X-33, Ni-NTA purified

Key:
[1] = target: T1, CeHEX-4 (Caenorhabditis HEX-4); assay: inhibition of pNP-β-GalNAc hydrolysis (A405), Cheng-Prusoff from IC50; Dixon plot; assay type: biochemical; conditions: substrate pNP-β-GalNAc, McIlvaine buffer, 37°C
[2] = target: T2, DmFDL (Drosophila melanogaster FDL); assay: p-nitrophenol release, A405; assay type: biochemical; conditions: 5 mM substrate, McIlvaine buffer, 30°C
[3] = target: T3, DmFDL (Drosophila melanogaster FDL); assay: p-nitrophenol release, A405; assay type: biochemical; conditions: 5 mM substrate, McIlvaine buffer, 30°C
[4] = substrate: CC(=O)N[C@H]1[C@H](Oc2ccc([N+](=O)[O-])cc2)O[C@H](CO)[C@H](O)[C@@H]1O; assay: p-nitrophenol release, A405, non-linear fit; assay type: biochemical, Caenorhabditis elegans; conditions: McIlvaine buffer at optimal pH (5-6), 37°C
[5] = substrate: CC(=O)N[C@H]1[C@H](Oc2ccc([N+](=O)[O-])cc2)O[C@H](CO)[C@@H](O)[C@@H]1O; assay: p-nitrophenol release, A405, non-linear fit; assay type: biochemical, Caenorhabditis elegans; conditions: McIlvaine buffer at optimal pH (5-6), 37°C
[6] = substrate: CC(=O)N[C@H]1[C@H](Oc2ccc([N+](=O)[O-])cc2)O[C@H](CO)[C@H](O)[C@@H]1O; assay: purified protein, by the assay type; design: p-nitrophenol release from pNP-glycoside substrate, A405, non-linear Michaelis-Menten fit
Protocol: (§1) Determination of Km, specific activity, kcat and Ki Standard enzymatic activity assays were performed using pNP-β-GlcNAc (Sigma, USA) and pNP-β-GalNAc (Sigma, USA) as a substrate. The assays were performed at a substrate concentration of 5 mM in McIlvaine buffer, pH 4.0–6.0 at 30°C for Drosophila FDL and at 37°C for the other hexosaminidases. The total reaction volume was 40 µL and incubation time was 2 h. All purified enzymes were tested for additional activities using a range of p-nitrophenyl-sugars as substrates at a concentration of 5 mM for 4 h. After the addition of 200 µL of 0.4 M glycine/NaOH pH 10.4, A405nm was determined on a Tecan Infinite M200 microtiter plate reader (Tecan, Austria). All enzymes were appropriately diluted for measurements in order to measure reactions within the linear range of the assay. Enzyme units are given in µmol product (nitrophenol) per minute.

[7] = substrate: CC(=O)N[C@H]1[C@H](Oc2ccc([N+](=O)[O-])cc2)O[C@H](CO)[C@@H](O)[C@@H]1O; assay: purified protein, by the assay type; design: p-nitrophenol release from pNP-glycoside substrate, A405, non-linear Michaelis-Menten fit
Protocol: as §1

Molecule | Km [4] | kcat [4] | kcat/Km [4] | Km [5] | kcat [5] | kcat/Km [5] | other results
CC(=O)N[C@H]1C(O)O[C@H](CO)[C@H](O)[C@@H]1O (stereo partly shown) [GalNAc, N-acetylgalactosamine] |  |  |  |  |  |  | Ki [1]: 1 mM
CC(=O)N[C@H]1[C@H](Oc2ccc([N+](=O)[O-])cc2)O[C@H](CO)[C@H](O)[C@@H]1O [pNP-β-GalNAc, p-nitrophenyl-β-D-N-acetylgalactosaminide] |  |  |  |  |  |  | p-nitrophenol release, A405 [2]: the W506A mutant showed decreased activity toward pNP-β-GalNAc; p-nitrophenol release, A405 [3]: the Drosophila G400V mutant showed increased
B1 | 0.59 ± 0.14 mM | 5.2 ± 1 s⁻¹ | 7800 ± 3000 M⁻¹ s⁻¹ | 0.97 ± 0.70 mM | 0.1 s⁻¹ | 200 ± 100 M⁻¹ s⁻¹ | 
B2 | 0.59 ± 0.05 mM | 13.8 ± 1.4 s⁻¹ | 19500 ± 2300 M⁻¹ s⁻¹ | 3.47 ± 0.35 mM | 12.6 ± 1.4 s⁻¹ | 2200 ± 100 M⁻¹ s⁻¹ | 
B3 |  |  |  |  |  |  | Km [6]: 0.52 ± 0.03 mM; kcat [6]: 5.6 ± 0.1 s⁻¹; kcat/Km [6]: 11900 ± 800 M⁻¹ s⁻¹; Km [7]: 1.40 ± 0.08 mM; kcat [7]: 48.2 ± 2.2 s⁻¹; kcat/Km [7]: 42000 ± 1800 M⁻¹ s⁻¹
B4 | 0.41 ± 0.08 mM |  |  | 0.23 ± 0.15 mM | 8.6 ± 0.8 s⁻¹ | 22000 ± 3600 M⁻¹ s⁻¹ | 
